Source: patent US20030148958A1 (PROCTER AND GAMBLE, published 2003)
Ends that are not written are not given here.

T1: CRF2R
T1 sequence (Q13324 whole entry, species assumed, looked up): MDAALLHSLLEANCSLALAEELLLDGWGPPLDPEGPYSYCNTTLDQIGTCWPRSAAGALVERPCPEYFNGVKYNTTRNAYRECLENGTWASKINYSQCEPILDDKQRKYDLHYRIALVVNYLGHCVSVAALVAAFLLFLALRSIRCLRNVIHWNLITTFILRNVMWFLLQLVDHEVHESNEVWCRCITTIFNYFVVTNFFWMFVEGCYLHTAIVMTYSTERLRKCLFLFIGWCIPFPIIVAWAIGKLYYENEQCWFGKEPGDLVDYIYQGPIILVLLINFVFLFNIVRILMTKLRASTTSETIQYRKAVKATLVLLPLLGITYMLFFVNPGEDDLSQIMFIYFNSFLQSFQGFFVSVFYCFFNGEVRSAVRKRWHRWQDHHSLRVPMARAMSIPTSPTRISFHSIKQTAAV


The binders below were run against T1, CRF2R (assay: cell-based or functional assay).
Throughout, for CRF1R Emax %: reference of the scale not given here.
Throughout, for CRF2R Emax %: reference of the scale not given here.

Binder | CRF2R EC50 [nM] | CRF2R Emax % [%]
DNPSLSIDLPLLLLRTLLELEKTQSQRERAEQNAQIFAHV-NH2 [SEQ ID NO 324] | 17.2 | 100
ZGPPISIDLPLALLRKMIEIEKQEKEKQQAANNRLLLDTI (C-terminal amide) [SEQ ID NO 308] | 3.3 | 72.8
ZGPPISIDLPYWLLRKMIEIEKQEKEKQQAANNALLLDTI (C-terminal amide) [SEQ ID NO 310] | 8.7 | 87.5
ZGPPISIDLPFFLLRKMIEIEKQEKEKQQAANNALLLDTI (C-terminal amide) [SEQ ID NO 318] | 9.95 | 95.4
ZGPPISIDLPYHLLRKVIEIEKQEKEKQQAANNALLLATI (C-terminal amide) [SEQ ID NO 313] | 11.1 | 95
ZGPPISIDLPYWLLRKVIEIEKQEKEKQQAANNALLLDTI (C-terminal amide) [SEQ ID NO 311] | 11.7 | 100
ZGPPISIDLPYHLLRKMIEIEKQEKEKQQAANNALLLDTI (C-terminal amide) [SEQ ID NO 314] | 10.3 | 99.8
ZGPPISIDLPYALLRKMIEIEKQEKEKQQAANNRLLLDTI (C-terminal amide) [SEQ ID NO 309] | 5.55 | 99.9
ZGPPISIDLPFFLLRKMIEIEKQEKEKQQAANNALLLATI (C-terminal amide) [SEQ ID NO 319] | 8.5 | 95
ZGPPISIDLPFFLLRKVIEIEKQEKEKQQAANNALLLATI (C-terminal amide) [SEQ ID NO 317] | 9.3 | 88.3
ZGPPISIDLPFFLLRKVIEIEKQEKEKQQAANNALLLDTI (C-terminal amide) [SEQ ID NO 316] | 10.2 | 94.5
ZGPPISIDLPYHLLRKVIEIEKQEKEKQQAANNALLLDTI (C-terminal amide) [SEQ ID NO 312] | 14.1 | 95
DNPSLSIDLPLLLLRTLLELEKTQSQRERAEQNAQIFAQV-NH2 [SEQ ID NO 327] | 28.4 | 100
ZGPPISIDLPYHLLRKMIEIEKQEKEKQQAANNALLLAT (C-terminal amide) [SEQ ID NO 315] | 9.35 | 81.7
DNPSLSIDLPLLLLRTLLELEKTQSQRERAEQNAEIFAEV-NH2 [SEQ ID NO 323] | 19.6 | 100
IVLSLDVPIGLLQKMIEIEKQEKEKQQATTNARILARV-NH2 [SEQ ID NO 322] | 23.1 | 96.5
ZGPPISIDLPLQLLRKVIEIEKQEKEKQQATTNARILARV (C-terminal amide) [SEQ ID NO 320] | 19.1 | 100
ZGPPISIDLPFQLLRKTIEIEKQEKEKQQATTNARLLDRV (C-terminal amide) [SEQ ID NO 321] | 19.6 | 86.8
DNPSLSIDLPLLLLRTLLELEKTQSQRERAEQNANIFANV-NH2 [SEQ ID NO 326] | 33.7 | 100
IVLSLDVPIGLLQILLEQEKARAAREQATTNARILARV-NH2 [SEQ ID NO 325] | 11.7 | 100

The remaining lines, values ahead:

CRF2R EC50 [nM] | CRF2R Emax % [%] | Binder
9.85 | 100 | PSLSIDLPLFLLRTLLELEKTQSQRERAEQNARIFARV-NH2 [SEQ ID NO 331]
9.85 | 96.9 | PSLSIDLPLLLLRTLLELEKTQSQRERAEQNARIFARV-NH2 [SEQ ID NO 333]
23.9 | 86.7 | DNPSLSIDLPLILLRTLLELEKTQSQRERAEQNARIFDRV-NH2 [SEQ ID NO 337]
4.3 |  | PSLSIDLPLLLLRTLLELEKTQSQRERAEQNAIIFASV-NH2 [SEQ ID NO 344]
6 | 93.7 | DNPSLSIDLPLILLRTLLELARTQSQRERAEQNARIFARV-NH2 [SEQ ID NO 330]
13.2 | 93.5 | DNPSLSIDLPLFLLRTLLELEKTQSQRERAEQNARIFARV-NH2 [SEQ ID NO 334]
17.8 | 100 | DNPSLSIDLPLFLLRTLLELEKTQSQRERAEQNARIFDRV-NH2 [SEQ ID NO 336]
100 | 47.9 | DNPSLSIDLPQYLLRTLLELARTQSQRERAEQNAIIFASV-NH2 [SEQ ID NO 339]
7.99 | 100 | DNPSLSIDLPLLLLRTLLELARTQSQRERAEQNARIFARV-NH2 [SEQ ID NO 340]
13.6 | 96.5 | DNPSLSIDLPLFLLRTLLELEKTQSQRERAEQNAIIFASV-NH2 [SEQ ID NO 343]
5.15 | 98.3 | DNPSLSIDLPLFLLRTLLELARTQSQRERAEQNARIFARV-NH2 [SEQ ID NO 329]
20.2 | 92.2 | DNPSLSIDLPLQLLRTLLELEKTQSQRERAEQNAIIFASV-NH2 [SEQ ID NO 342]
8.83 | 95.5 | DNPSLSIDLPLLLLRTLLELEKTQSQRERAEQNARIFARV-NH2 [SEQ ID NO 341]
19.3 | 77.5 | DNPSLSIDLPLLLLRTLLELEKTQSQRERAEQNARIFDRV-NH2 [SEQ ID NO 338]
28.1 | 91 | DNPSLSIDLPLILLRTLLELEKTQSQRERAEQNARIFARV-NH2 [SEQ ID NO 335]
9.95 | 100 | PSLSIDLPLILLRTLLELEKTQSQRERAEQNARIFARV-NH2 [SEQ ID NO 332]
11.7 | 95.7 | DNPSLSIDLPLLLLRTLLELEKTQSQRERAEQNAHIFAHV-NH2 [SEQ ID NO 328]

The binders below were run against CRF1R (assay: cell-based or functional assay).

Binder | CRF1R EC50 [nM] | CRF1R Emax % [%]
DNPSLSIDLPLLLLRTLLELEKTQSQRERAEQNAQIFAHV-NH2 [SEQ ID NO 324] | 1000 | 46.6
ZGPPISIDLPLALLRKMIEIEKQEKEKQQAANNRLLLDTI (C-terminal amide) [SEQ ID NO 308] | 63.5 | 100
ZGPPISIDLPYWLLRKMIEIEKQEKEKQQAANNALLLDTI (C-terminal amide) [SEQ ID NO 310] | 1000 | 45.3
ZGPPISIDLPFFLLRKMIEIEKQEKEKQQAANNALLLDTI (C-terminal amide) [SEQ ID NO 318] | 134 | 92.8
ZGPPISIDLPYHLLRKVIEIEKQEKEKQQAANNALLLATI (C-terminal amide) [SEQ ID NO 313] | 704 | 87.1
ZGPPISIDLPYWLLRKVIEIEKQEKEKQQAANNALLLDTI (C-terminal amide) [SEQ ID NO 311] | 1000 | 29.7
ZGPPISIDLPYHLLRKMIEIEKQEKEKQQAANNALLLDTI (C-terminal amide) [SEQ ID NO 314] | 978 | 82.4
ZGPPISIDLPYALLRKMIEIEKQEKEKQQAANNRLLLDTI (C-terminal amide) [SEQ ID NO 309] | 108 | 96.3
ZGPPISIDLPFFLLRKMIEIEKQEKEKQQAANNALLLATI (C-terminal amide) [SEQ ID NO 319] | 106 | 88.3
ZGPPISIDLPFFLLRKVIEIEKQEKEKQQAANNALLLATI (C-terminal amide) [SEQ ID NO 317] | 188 | 100
ZGPPISIDLPFFLLRKVIEIEKQEKEKQQAANNALLLDTI (C-terminal amide) [SEQ ID NO 316] | 222 | 92.3
ZGPPISIDLPYHLLRKVIEIEKQEKEKQQAANNALLLDTI (C-terminal amide) [SEQ ID NO 312] | 870 | 62
DNPSLSIDLPLLLLRTLLELEKTQSQRERAEQNAQIFAQV-NH2 [SEQ ID NO 327] | 1000 | 36.5
ZGPPISIDLPYHLLRKMIEIEKQEKEKQQAANNALLLAT (C-terminal amide) [SEQ ID NO 315] | 454 | 100
DNPSLSIDLPLLLLRTLLELEKTQSQRERAEQNAEIFAEV-NH2 [SEQ ID NO 323] | 1000 | 36.9
IVLSLDVPIGLLQKMIEIEKQEKEKQQATTNARILARV-NH2 [SEQ ID NO 322] | 1000 | 10.7
ZGPPISIDLPLQLLRKVIEIEKQEKEKQQATTNARILARV (C-terminal amide) [SEQ ID NO 320] | 718 | 68.8
ZGPPISIDLPFQLLRKTIEIEKQEKEKQQATTNARLLDRV (C-terminal amide) [SEQ ID NO 321] | 1000 | 33.8
DNPSLSIDLPLLLLRTLLELEKTQSQRERAEQNANIFANV-NH2 [SEQ ID NO 326] | 1000 | 30.1
IVLSLDVPIGLLQILLEQEKARAAREQATTNARILARV-NH2 [SEQ ID NO 325] | 100 | 5

Results, then the binder that gave them:

CRF1R EC50 [nM] | CRF1R Emax % [%] | Binder
1000 | 78.7 | PSLSIDLPLFLLRTLLELEKTQSQRERAEQNARIFARV-NH2 [SEQ ID NO 331]
1000 | 43.8 | PSLSIDLPLLLLRTLLELEKTQSQRERAEQNARIFARV-NH2 [SEQ ID NO 333]
1000 | 36.5 | DNPSLSIDLPLILLRTLLELEKTQSQRERAEQNARIFDRV-NH2 [SEQ ID NO 337]
650 |  | PSLSIDLPLLLLRTLLELEKTQSQRERAEQNAIIFASV-NH2 [SEQ ID NO 344]
1000 | 86.8 | DNPSLSIDLPLILLRTLLELARTQSQRERAEQNARIFARV-NH2 [SEQ ID NO 330]
1000 | 82.6 | DNPSLSIDLPLFLLRTLLELEKTQSQRERAEQNARIFARV-NH2 [SEQ ID NO 334]
1000 | 59.9 | DNPSLSIDLPLFLLRTLLELEKTQSQRERAEQNARIFDRV-NH2 [SEQ ID NO 336]
1000 | 13.2 | DNPSLSIDLPQYLLRTLLELARTQSQRERAEQNAIIFASV-NH2 [SEQ ID NO 339]
740 | 96 | DNPSLSIDLPLLLLRTLLELARTQSQRERAEQNARIFARV-NH2 [SEQ ID NO 340]
783 | 62.5 | DNPSLSIDLPLFLLRTLLELEKTQSQRERAEQNAIIFASV-NH2 [SEQ ID NO 343]
1000 | 98.4 | DNPSLSIDLPLFLLRTLLELARTQSQRERAEQNARIFARV-NH2 [SEQ ID NO 329]
1000 | 19.6 | DNPSLSIDLPLQLLRTLLELEKTQSQRERAEQNAIIFASV-NH2 [SEQ ID NO 342]
850 | 82.3 | DNPSLSIDLPLLLLRTLLELEKTQSQRERAEQNARIFARV-NH2 [SEQ ID NO 341]
1000 | 41.1 | DNPSLSIDLPLLLLRTLLELEKTQSQRERAEQNARIFDRV-NH2 [SEQ ID NO 338]
1000 | 49.5 | DNPSLSIDLPLILLRTLLELEKTQSQRERAEQNARIFARV-NH2 [SEQ ID NO 335]
1000 | 61.3 | PSLSIDLPLILLRTLLELEKTQSQRERAEQNARIFARV-NH2 [SEQ ID NO 332]
1000 | 30.7 | DNPSLSIDLPLLLLRTLLELEKTQSQRERAEQNAHIFAHV-NH2 [SEQ ID NO 328]
